First the molecules themselves.
T1: CXCL8_HUMAN (Homo sapiens, UniProt P10145)
T1 sequence (P10145 21-99): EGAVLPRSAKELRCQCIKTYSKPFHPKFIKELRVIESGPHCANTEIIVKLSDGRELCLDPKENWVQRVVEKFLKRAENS

T2: CCL8_HUMAN (Homo sapiens, UniProt P80075)
T2 sequence (P80075 24-99): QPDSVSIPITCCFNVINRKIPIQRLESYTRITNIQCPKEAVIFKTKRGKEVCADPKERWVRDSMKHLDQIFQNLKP

T3: CCL18_HUMAN (Homo sapiens, UniProt P55774)
T3 sequence (P55774 21-89): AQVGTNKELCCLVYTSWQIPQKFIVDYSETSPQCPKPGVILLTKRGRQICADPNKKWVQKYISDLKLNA

T4: CCL4_HUMAN (Homo sapiens, UniProt P13236)
T4 sequence (P13236 24-92): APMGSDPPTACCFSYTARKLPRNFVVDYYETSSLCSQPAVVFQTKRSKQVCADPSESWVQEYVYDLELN

T5: CCL4L1_HUMAN (Homo sapiens, UniProt Q8NHW4)
T5 sequence (Q8NHW4 24-92): T4 sequence (P13236 24-92) with S47G

T6: CCL3_HUMAN (Homo sapiens, UniProt P10147)
T6 sequence (P10147 24-92): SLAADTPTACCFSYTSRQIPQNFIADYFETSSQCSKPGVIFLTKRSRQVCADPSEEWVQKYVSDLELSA

T7: CCL14_HUMAN (Homo sapiens, UniProt Q16627)
T7 sequence (Q16627 20-93): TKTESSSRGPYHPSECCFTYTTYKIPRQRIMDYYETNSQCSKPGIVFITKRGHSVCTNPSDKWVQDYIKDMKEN

T8: CCL5_HUMAN (Homo sapiens, UniProt P13501)
T8 sequence (P13501 24-91): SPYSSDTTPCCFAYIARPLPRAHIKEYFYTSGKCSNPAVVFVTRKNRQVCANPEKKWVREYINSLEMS

T9: CXCL10_HUMAN (Homo sapiens, UniProt P02778)
T9 sequence (P02778 22-98): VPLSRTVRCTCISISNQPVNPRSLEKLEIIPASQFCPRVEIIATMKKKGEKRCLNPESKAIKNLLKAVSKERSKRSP

B1: P1128_IXORI: novel CXC-binding tick CKBP, Ixodes ricinus (protein, listed as Ixodes ricinus)
chain: KDDEHFSVDYCGMNCTQQEDGSWTACSGRNEECRCYHESGKKNGLCLSTTYIDFSQYGNPSDSDIAAASPRP
B2: P1174_IXORI: novel CXC-binding tick CKBP, Ixodes ricinus (protein, listed as Ixodes ricinus)
chain: LNNENELFSVEYCGANCTQQDNGSWTKCKGNCTCYHEDGKRYGLCLSTEYTDFTQFPKPTSEEIADASPRPKETNSH
B3: P1170_IXORI: novel CXC-binding tick CKBP, Ixodes ricinus (protein, listed as Ixodes ricinus)
chain: LGDEDQLFSVEYCGTNCTQQDDGKWTPCSGKNGKCKCYHEDGKRYGLCLYTEYTDFSQYPNPEGSEIENTRPRP
B4: P1127_IXORI: novel CXC-binding tick CKBP, Ixodes ricinus (protein, listed as Ixodes ricinus)
chain: AGKDDEHFSVDYCGMNCTQQEDGSWTACSGRNGECRCYHESGKRSGLCLSTTYIDFSEYGNLSDSDIAAASPRLSMKESH
B5: P1182_AMBMA: tick CKBP, Amblyomma maculatum (protein, listed as Amblyomma maculatum)
chain: EPKDDNDYGGGCPFVVLGNGTHAKPAGCSHLCNGAPETLDNIECYNVTEEVAKRMTPGIPYACWLGWCNKGECKRGNRTEVCYRGSEEE
B6: P1180_AMBTR: tick CKBP, Amblyomma triste (protein)
chain: EEPKDGYDYTEGCPFVVLGNGTHAKPAGCSHLCNGAPETLDDNMECYNVTEEVAKRMTPDIPYTCWLGWCSKGECKRDNRTEVCYRGSERE
modifications: Amblyomma triste
B7: P983_AMBPA: tick CKBP; named P983_AMBCA in Table 1 (protein)
chain: EDTGTEDDFDYGNTGCPFPVLGNYKSNMTKPVGCKNKCGSGYEVLNDTTPCYVIDQKVFNNMVPLRQYSKCPLGFCENGECKPNDQAEDCYKGREEQK
modifications: Amblyomma cajennense
B8: P1181_AMBMA: tick CKBP, Amblyomma maculatum (protein, listed as Amblyomma maculatum)
chain: EEREDDNDYGGGCPFVVLGNGTHAKPAGCSHLCNGAPETLDNIECYNVTEEVAKRMTPDIPYTCWLGWCSKGECKRDNRTEVCYRGSERE
B9: P1063_AMBTR: tick CKBP, Amblyomma triste (protein)
chain: QSEVGKNVPGCGDTETLEAPPQEKPPYYEYKDEEGCTQKVLESWFQAGERSTGRGQKKRGHGRRPSRVLRTVDCRKNCTVGITALPDGHLCLVPRGDPFTRGGAIKYGCYLGDCASGHCQHRYETVSCRLPAPDTTAKPYYVTPEK
modifications: Amblyomma triste
B10: P1283_IXORI: tick CKBP, Ixodes ricinus (protein, listed as Ixodes ricinus)
chain: KEPEDTTLPPGALVDSPDSDNCSSPHLPYFDETTNMWMGFLAVNCTKKCPVGKHVTVVDGNKCIGTWSFLDELTITVLVGSCKDGFCETDGSSECRNITLAEEDSQEEEGAAAEEEDEEDEEDEEEEEAEEEREDDHDDA

Positions count from the first letter of the chain named.

CCL7_HUMAN, sequence (P80098 24-99): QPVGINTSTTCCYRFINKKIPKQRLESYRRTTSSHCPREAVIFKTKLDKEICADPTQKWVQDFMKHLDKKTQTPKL
CCL11_HUMAN, sequence (P51671 24-97): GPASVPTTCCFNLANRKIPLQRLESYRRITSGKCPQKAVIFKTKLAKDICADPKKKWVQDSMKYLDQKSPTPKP

The first assay addresses T1, CXCL8_HUMAN. Description: Yeast surface display (YSD) FACS binding. Set-up: label (chemical). As to conditions: FACS re-test; mean percent shift where several clones. Here is the method:
(§1) Table 1. Tick CKBPs described in PCT/GB2017/050563 and [17]. Tick peptide sequences isolated in yeast surface display fluorescent-activated cell sorting (FACS) screens using a labelled chemokine. Identity with Evasin-1, 4 or 3 was calculated using BLAST. Abbreviations: IXORI—Ixodes ricinus, RHISA—Rhipicephalus sanguineus, AMBMA—Amblyomma maculatum, AMBPA—Amblyomma parvum, AMBTR—Amblyomma triste, AMBAM—Amblyomma americanum, AMBCA—Amblyomma cajennense, RHIPU—Rhipicephalus pulchellus. Table 2A-C. Binding characteristics of tick CKBPs previously disclosed (PCT/GB2017/050563 and [17]). All members of the human chemokine family[164] are listed in column 1. Binding to human chemokines was determined for 14 tick CKBPs using biolayer interferometry (BLI) with calculated Kd shown as Molar (Moles/Litre). Binding data for 17 other novel tick CKBPs was assayed using yeast surface display[17,166],with positive binding results shown as “YES”. For biolayer interferometry, His-tagged purified tick CKBP was bound to a Ni-NINTA sensor on an OctetRed® 384 system, and then binding to each chemokine listed (with the exception of CCL25, CCL26, CXCL16, CXCL17, CXCL4L1, XCL2) was assayed in a cross-binding screen at a chemokine concentration of 300 nM as described. For those chemokines showing binding to a tick CKBP in the cross-binding screen, binding assays were repeated using different doses of chemokine. Association, equilibrium and dissociation data were analysed using Octet software to create corresponding fitted curves, and used to calculate Kd. For yeast surface display, (YSD) background fluorescence was controlled for by using either an empty vector or by omitting the chemokine (i.e. using streptavidin-Alexa647 alone). An arbitrary threshold of >3 fold over background mean fluorescence intensity was chosen to describe confirmed re-tests. Where binding was detected data are indicated as “YES”. […] For yeast surface display data, empty cells represent chemokines that were not tested. Binding data published in relation to previously described tick CKBPs (Evasins-1, 4 and 3) is also shown for comparison in each of FIGS. 2A-C, with the relevant data obtained from publications: [20-22,32]. Table 3: Neutralisation of human chemokines by tick CKBPs previously disclosed (PCT/GB2017/050563 and [17]). Neutralising activity was determined using a quantitative THP1 cell migration assay in a 96-well Boyden chamber with chemokine in the bottom chamber as described. Cells migrating through to the bottom chamber at 4 hours were counted using flow cytometry in a 96 well plate format. IC50 for neutralisation was determined at the chemokine EC80 dose as determined using a range of tick CKBP concentrations. Data was analysed using GraphPad Prism to determine IC50, which is shown as Molar (Moles/Litre). Empty cells represent experiments not done. Table 4—Other previously described tick CKBPs. Tick CKBPs that were also described in PCT/GB2017/050563 and Singh et al. are indicated in “Notes”. Table 5.—Novel tick CKBPs of the invention. Table 6. […] The peptide sequence prefix indicates the identity, and suffix indicate the tick species as follows: AMBCA, Amblyomma cajennense and IXORI, Ixodes ricinus. […] Certain tick peptides e.g. P1074_IXORI were recovered from screens performed with more than one chemokine. Individual yeast clones recovered from the library were re-tested using a FACS (fluorescence activated cell sorting), experiment. The binding of the peptide to the chemokine was assayed by measuring the percent (%), of yeast cells expressing the given peptide that exceeded a background threshold set by measuring the fluorescence of the yeast library pool treated with streptavidin-[…] alone. When more than one independent yeast clone was isolated for a given peptide-chemokine combination, the mean percent shift was calculated and reported in column 3. […]
With B1, the “Chemokines bound in yeast surface display and % cells over threshold fluorescence: CXCL8_HUMAN” value was “CXCL8_HUMAN 53%”.

In the case of B2, the “Chemokines bound in yeast surface display and % cells over threshold fluorescence: CXCL8_HUMAN” value is recorded as “CXCL8_HUMAN 29%”.

With B3, the “Chemokines bound in yeast surface display and % cells over threshold fluorescence: CXCL8_HUMAN” value was “CXCL8_HUMAN 81%”.

B4: the “Chemokines bound in yeast surface display and % cells over threshold fluorescence: CXCL8_HUMAN” value is recorded as “CXCL8_HUMAN 43%”.

A further assay deals with T2, CCL8_HUMAN. Put plainly: Biolayer interferometry (BLI) binding. The note with it: read-out: Kd, CCL8_HUMAN. As for the experimental part:
as §1
As to B5, the Kd stood at 29 nM.

Take B6: the Kd amounted to 3.6 nM.

For B7, the dissociation constant (Kd) was found to be 7 nM.

Turning to B8, the Kd is 14 nM.

The next assay addresses T3, CCL18_HUMAN. Description: Biolayer interferometry (BLI) binding.
Conditions: not given
As for the experimental part: as §1
On to B5, for which the Kd came to 33 nM.

In the case of B6, the Kd is 5.8 nM.

On to B8, for which the Kd amounted to 10 nM.

Another assay concerns the target CCL7_HUMAN (Homo sapiens, UniProt P80098). Description: Biolayer interferometry (BLI) binding.
Conditions: not given
As for the experimental part:
as §1
On to B6, for which the Kd worked out at 98 nM.

In the case of B7, the Kd came to 32 nM.

Consider B8, for which the Kd is 120 nM.

The next assay addresses CCL11_HUMAN (Homo sapiens, UniProt P51671). Description: Biolayer interferometry (BLI) binding.
Conditions: not given
As for the experimental part:
as §1
Turning to B5, the equilibrium dissociation constant (Kd) is 28 nM.

In the case of B6, the Kd came to 33 nM.

In the case of B7, the Kd worked out at 21 nM.

In the case of B8, the Kd was found to be 20 nM.

A further assay concerns the target T4, CCL4_HUMAN. Description: Biolayer interferometry (BLI) binding.
Conditions: not given
As for the experimental part: as §1
Take B5: the Kd was determined as 63 nM.

Regarding B6, the Kd came out at 66 nM.

Consider B7, for which the Kd is 8 nM.

For B8, the Kd is 53 nM.

A further assay deals with CCL2_HUMAN (Homo sapiens, UniProt P13500). Description: Biolayer interferometry (BLI) binding.
CCL2_HUMAN, sequence (P13500 24-99): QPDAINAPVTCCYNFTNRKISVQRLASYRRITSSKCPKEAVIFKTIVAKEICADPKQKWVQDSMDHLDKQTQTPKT
Conditions: not given
As for the experimental part:
as §1
Consider B5, for which the Kd is 74 nM.

With B6, the Kd is 53 nM.

Turning to B7, the Kd was determined as 14 nM.

In the case of B8, the Kd was determined as 74 nM.

In the next assay the target is T5, CCL4L1_HUMAN. Description: Biolayer interferometry (BLI) binding.
Conditions: not given
As for the experimental part: as §1
In the case of B5, the Kd came to 92 nM.

B6: the Kd stood at 20 nM.

On to B8, for which the Kd is 35 nM.

In another assay the target is CCL13_HUMAN (Homo sapiens, UniProt Q99616). Description: Biolayer interferometry (BLI) binding.
CCL13_HUMAN, sequence (Q99616 17-98): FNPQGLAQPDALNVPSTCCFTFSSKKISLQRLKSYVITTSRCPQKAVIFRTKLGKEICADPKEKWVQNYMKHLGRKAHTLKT
Conditions: not given
Here is the method: as §1
Turning to B5, the Kd amounted to 56 nM.

Turning to B6, the Kd was found to be 9 nM.

Regarding B7, the Kd came out at 17 nM.

Consider B8, for which the Kd came out at 19 nM.

The target of a further assay is CCL3L1_HUMAN (Homo sapiens, UniProt P16619). Put plainly: Biolayer interferometry (BLI) binding.
CCL3L1_HUMAN, sequence (P16619 24-93): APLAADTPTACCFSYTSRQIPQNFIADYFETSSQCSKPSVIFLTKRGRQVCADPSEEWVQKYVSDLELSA
Conditions: not given
As for the experimental part:
as §1
As to B5, the Kd stood at 9.5 nM.

On to B6, for which the Kd amounted to 2.2 nM.

Regarding B7, the Kd was 2.1 nM.

In the case of B8, the Kd was determined as 3.3 nM.

The next assay deals with T6, CCL3_HUMAN. Put plainly: Biolayer interferometry (BLI) binding.
Conditions: not given
As for the experimental part:
as §1
For B5, the Kd turned out to be 5.4 nM.

With B6, the Kd worked out at 1.1 nM.

On to B7, for which the Kd was 3.5 nM.

For the molecule B8, the Kd is 2.2 nM.

A further assay concerns the target T7, CCL14_HUMAN. Description: Biolayer interferometry (BLI) binding.
Conditions: not given
As for the experimental part: as §1
In the case of B5, the Kd is 50 nM.

Consider B6, for which the Kd came to 4.4 nM.

As to B7, the Kd was 81 nM.

For the molecule B8, the Kd came out at 47 nM.

Another assay has as its target T8, CCL5_HUMAN. Description: Yeast surface display (YSD) FACS binding.
Conditions: not given
Here is the method:
as §1
As for B9, the “Binding to CCL5_HUMAN, YSD” value is “YES (An arbitrary threshold of >3 fold over background mean fluorescence intensity was chosen to describe confirmed re-tests. Where binding was detected data are indicated as “YES”)”.

A further assay addresses T9, CXCL10_HUMAN. Description: Yeast surface display (YSD) FACS binding. The note with it: yeast surface display. As for the experimental part:
as §1
In the case of B10, the “Binding to CXCL10_HUMAN, YSD” value is recorded as “YES (An arbitrary threshold of >3 fold over background mean fluorescence intensity was chosen to describe confirmed re-tests. Where binding was detected data are indicated as “YES”)”.

For the origin of these results see patent US20200247855A1, “THERAPY AND DIAGNOSTICS” (OXFORD UNIVERSITY INNOVATION LIMITED, priority 2017, published 2020).
